Among the data in US20110262447A1 are Kd values, retold here.

In assay [1] the target is T1, FRHSVV peptide, the common epitope of mutant p53 (biotin conjugate) (human).
Assay [2] addresses T1, FRHSVV peptide, the common epitope of …. Put plainly: BIAcore SPR.

Like-named read-outs stand apart in the source and are kept apart here.

B1: E6 scFv (scFv)
scFv: VQLLESGGGLVQPGGSLRLSCAASGFTFSGYWMHWVRQAPGKGLEWVSEISGSGDSTHYGDSVKGRFTISRDNSKNTLYLQMNSLRAEDTAVYYCARGRNGSLDYWGQGTLVTVSSGSAGGGGSGGGGSGGGGSDIVLTQPPSASGTPGQRVTISCSGSSSNIGAGYDVHWYQQLPGTAPKLLIYGNTNRPSGVSDRFSGSKSGTSASLAISGLRSEDEADYYCQSFDSTLSGPVFGGGTKVTV
For the molecule B1, the Kd in assay [1] amounted to 4.6e-05 nM.

B2: A6 scFv (scFv)
scFv: VQLLESGGGLVQPGGSPRLSCAASGFTFSGYWMHWVRQAPGKGLEWVSEISGSGDSTHYGDSVKGRFTISRDNSKNTLYLQMNSLRAEDTAVYYCARGRNGSLDYWGQGTLVTVSSGSAGGGGSGGGGSGGGGSDIVLTQPPSASGTPGQRVTISCTGGRFNIGDYAVNWYQQLPGKAPKLLIYDNDRRPSGVSDRFSGSKSGTSASLAISGLRSEDEADYYCAAWDDSLDGLVFGGGTQLTV
Turning to B2, the equilibrium dissociation constant (Kd) in assay [2] worked out at 23 nM.

B3: F2 scFv (scFv)
scFv: VQLLESGGGLVQPGGSLRLSCAASGFTFSGYWMHWVRQAPGKGLEWVSEISGSGDSTHYGDSVKGRFTISRDNSKNTLYLQMNSLRAEDTAVYYCARGRNGSLDYWGQGTLVTVSSGSAGGGGSGGGGSGGGGSDIVLTQPPSASGTPGQRVTISCSGTSSNIGADYDVHWYQQLPGKAPKLLIYDNNKRPSGVSDRFSGSKSGTSASLAISGLRSEDEADYYCAAWDSSLSSVVFGGGTQLTV
As to B3, in assay [1], the Kd came out at 11 nM. That is a double-digit nanomolar value.
